Test results taken from the supplement of paper PMC9112550, “Optimization of the antimicrobial peptide Bac7 by deep mutational scanning” (BMC Biology, 2022).

system: Escherichia coli TOP10; test: shrunken log2 fold change of peptide-encoding DNA abundance (4.5 h post-induction vs induction); higher = less antimicrobial activity (less host growth inhibition); conditions: time post-induction: 4.5 h; library: site-saturation at positions 5, 18, 19, 20
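Note: peptides expressed intracellularly from a pBAD plasmid library in pooled LB shake-flask culture, induced with 0.3% L-arabinose, DNA abundance read by NGS, three biological replicates, DESeq2 with apeglm shrinkage.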

Sequence	shrunken log2 fold change
RRIRGRPPRLPRPRPRPCLTPRP	0.496
RRIRLRPPRLPRPRPRPPNDPRP	0.0552
RRIRNRPPRLPRPRPRPWFHPRP	-0.179
RRIRQRPPRLPRPRPRPCNSPRP	-0.0261
RRIRERPPRLPRPRPRPFSFPRP	0.122
RRIRLRPPRLPRPRPRPFRYPRP	-0.021
RRIRPRPPRLPRPRPRPFYMPRP	-0.324
RRIRCRPPRLPRPRPRPGIWPRP	0.485
RRIRQRPPRLPRPRPRPYHQPRP	-0.631
RRIRERPPRLPRPRPRPINVPRP	0.017
RRIRSRPPRLPRPRPRPKLTPRP	-0.06
RRIRLRPPRLPRPRPRPSETPRP	-0.0373
RRIRWRPPRLPRPRPRPRMMPRP	0.0684
RRIRLRPPRLPRPRPRPNNLPRP	-0.177
RRIRPRPPRLPRPRPRPDNAPRP	0.0303
RRIRHRPPRLPRPRPRPKMWPRP	0.451
RRIRDRPPRLPRPRPRPWSDPRP	-0.0204
RRIRMRPPRLPRPRPRPSTTPRP	0.352
RRIRDRPPRLPRPRPRPAKYPRP	-0.315
RRIRVRPPRLPRPRPRPISTPRP	-0.112
RRIRYRPPRLPRPRPRPIEFPRP	-0.0341
RRIRHRPPRLPRPRPRPGFYPRP	-0.363
RRIRGRPPRLPRPRPRPMATPRP	1.37
RRIRIRPPRLPRPRPRPTVFPRP	-0.237
RRIRVRPPRLPRPRPRPRDGPRP	1.09

Sequence	shrunken log2 fold change
RRIRQRPPRLPRPRPRPEIGPRP	0.0792
RRIRIRPPRLPRPRPRPCAGPRP	-0.000248
RRIRNRPPRLPRPRPRPNSLPRP	-0.335
RRIRVRPPRLPRPRPRPMEHPRP	0.0534
RRIRMRPPRLPRPRPRPVWCPRP	-0.0672
RRIRPRPPRLPRPRPRPKLLPRP	-0.0549
RRIRTRPPRLPRPRPRPNGEPRP	-0.12
RRIRIRPPRLPRPRPRPRYDPRP	-0.285
RRIRPRPPRLPRPRPRPNICPRP	-0.799
RRIRYRPPRLPRPRPRPQDLPRP	0.0284
RRIRMRPPRLPRPRPRPAEIPRP	0.11
RRIRRRPPRLPRPRPRPQYGPRP	-0.409
RRIRFRPPRLPRPRPRPSSHPRP	-0.682
RRIRFRPPRLPRPRPRPCQNPRP	0.0482
RRIRIRPPRLPRPRPRPIITPRP	-0.625
RRIRQRPPRLPRPRPRPYPLPRP	-0.73
RRIRWRPPRLPRPRPRPCDLPRP	-0.286
RRIRMRPPRLPRPRPRPITCPRP	-0.0534
RRIRWRPPRLPRPRPRPLTEPRP	0.251
RRIRFRPPRLPRPRPRPIDIPRP	0.0578
RRIRRRPPRLPRPRPRPCLGPRP	-0.0846
RRIRRRPPRLPRPRPRPDPPPRP	0.443
RRIRLRPPRLPRPRPRPRTGPRP	0.321
RRIRDRPPRLPRPRPRPSMKPRP	-0.198
RRIRERPPRLPRPRPRPPKLPRP	-0.0377

Sequence	shrunken log2 fold change
RRIRKRPPRLPRPRPRPMVEPRP	0.0956
RRIRERPPRLPRPRPRPMAFPRP	0.099
RRIRYRPPRLPRPRPRPHNVPRP	-0.14
RRIRFRPPRLPRPRPRPHTIPRP	-0.745
RRIRWRPPRLPRPRPRPDARPRP	-0.018
RRIRSRPPRLPRPRPRPQWCPRP	0.111
RRIRERPPRLPRPRPRPDFYPRP	-0.491
RRIRPRPPRLPRPRPRPQYNPRP	-0.742
RRIRERPPRLPRPRPRPLHEPRP	-0.65
RRIRIRPPRLPRPRPRPRKGPRP	0.05
RRIRKRPPRLPRPRPRPSFHPRP	-0.219
RRIRCRPPRLPRPRPRPDDTPRP	-0.36
RRIRFRPPRLPRPRPRPTHQPRP	2.65
RRIRYRPPRLPRPRPRPPESPRP	0.0226
RRIRHRPPRLPRPRPRPCEQPRP	-0.0166
RRIRGRPPRLPRPRPRPSCCPRP	0.722
RRIRPRPPRLPRPRPRPMLFPRP	-0.0744
RRIRWRPPRLPRPRPRPITRPRP	-0.0637
RRIRARPPRLPRPRPRPVSDPRP	0.576
RRIRPRPPRLPRPRPRPYKTPRP	0.001
RRIRNRPPRLPRPRPRPRWMPRP	0.0606
RRIRHRPPRLPRPRPRPETRPRP	0.013
RRIRERPPRLPRPRPRPCAQPRP	-0.00638
RRIRCRPPRLPRPRPRPKNLPRP	-0.292
RRIRCRPPRLPRPRPRPCRPPRP	-0.0339

Sequence	shrunken log2 fold change
RRIRDRPPRLPRPRPRPDPIPRP	0.278
RRIRARPPRLPRPRPRPIGNPRP	0.00902
RRIRGRPPRLPRPRPRPCMGPRP	0.289
RRIRPRPPRLPRPRPRPLYQPRP	-0.0164
RRIRCRPPRLPRPRPRPVMAPRP	-0.354
RRIRMRPPRLPRPRPRPELCPRP	3.34
RRIRERPPRLPRPRPRPASEPRP	-0.123
RRIRLRPPRLPRPRPRPPHWPRP	0.38
RRIRTRPPRLPRPRPRPTHLPRP	-0.0332
RRIRYRPPRLPRPRPRPWKAPRP	-0.0135
RRIRFRPPRLPRPRPRPCKIPRP	-0.0538
RRIRMRPPRLPRPRPRPGTCPRP	0.851
RRIRGRPPRLPRPRPRPLEWPRP	1.03
RRIRPRPPRLPRPRPRPQALPRP	0.339
RRIRWRPPRLPRPRPRPCPPPRP	-0.463
RRIRFRPPRLPRPRPRPYMWPRP	-1.43
RRIRARPPRLPRPRPRPEGWPRP	1.38
RRIRVRPPRLPRPRPRPPYRPRP	-0.0303
RRIRLRPPRLPRPRPRPECGPRP	0.372
RRIRERPPRLPRPRPRPAEFPRP	0.00307
RRIRNRPPRLPRPRPRPDEMPRP	-0.00822
RRIRWRPPRLPRPRPRPFGLPRP	0.0452
RRIRDRPPRLPRPRPRPDDMPRP	0.155
RRIRIRPPRLPRPRPRPVQIPRP	0.072
RRIRWRPPRLPRPRPRPFNNPRP	-0.494

Sequence	shrunken log2 fold change
RRIRVRPPRLPRPRPRPTEMPRP	-0.0269
RRIRYRPPRLPRPRPRPKFNPRP	-1.1
RRIRLRPPRLPRPRPRPNMVPRP	-0.126
RRIRSRPPRLPRPRPRPLRFPRP	0.926
RRIRSRPPRLPRPRPRPGTIPRP	-0.263
RRIRQRPPRLPRPRPRPWNYPRP	-0.201
RRIRHRPPRLPRPRPRPVEKPRP	-0.0342
RRIRARPPRLPRPRPRPFFVPRP	0.149
RRIRKRPPRLPRPRPRPAWDPRP	0.497
RRIRWRPPRLPRPRPRPKQMPRP	0.113
RRIRNRPPRLPRPRPRPGWCPRP	2.24
RRIRWRPPRLPRPRPRPYNCPRP	-0.331
RRIRQRPPRLPRPRPRPFDMPRP	-0.123
RRIRKRPPRLPRPRPRPVNSPRP	0.0157
RRIRPRPPRLPRPRPRPPCNPRP	-0.0234
RRIRWRPPRLPRPRPRPISTPRP	-0.399
RRIRVRPPRLPRPRPRPICTPRP	-0.00144
RRIRTRPPRLPRPRPRPYMQPRP	-0.298
RRIRQRPPRLPRPRPRPHACPRP	-0.0973
RRIRNRPPRLPRPRPRPFLMPRP	-0.0732
RRIRGRPPRLPRPRPRPLTDPRP	0.284
RRIRERPPRLPRPRPRPVFRPRP	-0.0125
RRIRFRPPRLPRPRPRPPVCPRP	-0.0141
RRIRRRPPRLPRPRPRPPICPRP	0.152
RRIRYRPPRLPRPRPRPLARPRP	-0.265

Sequence	shrunken log2 fold change
RRIRDRPPRLPRPRPRPNINPRP	-0.35
RRIRKRPPRLPRPRPRPWEIPRP	-0.00947
RRIRCRPPRLPRPRPRPKRCPRP	-0.00852
RRIRTRPPRLPRPRPRPKDLPRP	0.0246
RRIRERPPRLPRPRPRPHSYPRP	-0.0459
RRIRWRPPRLPRPRPRPVECPRP	0.194
RRIRRRPPRLPRPRPRPSIHPRP	-0.337
RRIRNRPPRLPRPRPRPWHRPRP	0.049
RRIRIRPPRLPRPRPRPKMNPRP	-0.954
RRIRRRPPRLPRPRPRPCCRPRP	0.197
RRIRERPPRLPRPRPRPMHWPRP	-0.0407
RRIRSRPPRLPRPRPRPLQNPRP	-0.0368
RRIRWRPPRLPRPRPRPEYVPRP	0.214
RRIRRRPPRLPRPRPRPRSTPRP	0.36
RRIRRRPPRLPRPRPRPGTVPRP	0.0962
RRIRFRPPRLPRPRPRPLNIPRP	-0.594
RRIRIRPPRLPRPRPRPTYAPRP	-0.612
RRIRHRPPRLPRPRPRPTGWPRP	0.841
RRIRDRPPRLPRPRPRPECRPRP	1.03
RRIRNRPPRLPRPRPRPDCSPRP	-0.224
RRIRSRPPRLPRPRPRPAMCPRP	-0.185
RRIRHRPPRLPRPRPRPEMEPRP	-0.108
RRIRRRPPRLPRPRPRPAIKPRP	0.304
RRIRERPPRLPRPRPRPMNIPRP	-0.847
RRIRGRPPRLPRPRPRPSHGPRP	0.487
